The text below walks through data of PMC3741282, “Novel VEGF Decoy Receptor Fusion Protein Conbercept Targeting Multiple VEGF Isoforms Provide Remarkable Anti-Angiogenesis Effect In Vivo” (PLoS ONE, 2013).

Settings in all cases: both partners purified
One assay deals with T1, VEGF-A121.
T1 chain: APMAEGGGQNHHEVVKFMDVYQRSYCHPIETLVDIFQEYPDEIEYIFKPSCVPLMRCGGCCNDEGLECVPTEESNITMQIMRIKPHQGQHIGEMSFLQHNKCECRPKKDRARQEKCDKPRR
Nature of the assay: SPR; BIACORE 3000; VEGF-A isoforms amine-coupled on CM5 chip (about 5,000±500 RU), FC1 blank; conbercept injected at eight two-fold dilutions 1.25 nM to 160 nM in HBS buffer (10 mM HEPES, 0.15 M sodium chloride, 3.4 mM EDTA, 0.005% surfactant P20); 1:1 binding with baseline drift model. On the technique in general: Surface plasmon resonance follows binding to a sensor surface in real time, without labels.

Assay [1] deals with T2, VEGF-A165.
T2 chain: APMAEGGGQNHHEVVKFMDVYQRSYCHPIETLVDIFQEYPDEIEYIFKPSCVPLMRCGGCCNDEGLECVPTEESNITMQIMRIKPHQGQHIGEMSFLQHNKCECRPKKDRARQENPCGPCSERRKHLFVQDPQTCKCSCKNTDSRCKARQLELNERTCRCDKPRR
The assay is described as above.

Another assay addresses T3, VEGF-B167 (UniProt P49765-2 22-188).
T3 construct: VEGF-B, isoform VEGF-B167; source: bought: R&D
T3 sequence (looked up): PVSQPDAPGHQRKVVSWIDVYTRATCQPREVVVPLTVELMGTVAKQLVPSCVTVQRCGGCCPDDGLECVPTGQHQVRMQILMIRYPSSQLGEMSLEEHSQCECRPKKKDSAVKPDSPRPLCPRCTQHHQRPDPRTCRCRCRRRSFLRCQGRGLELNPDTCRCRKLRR
The assay is described as follows: SPR; BIACORE 3000; VEGF-B167 and PlGF immobilized on CM5 chip, FC1 blank; conbercept injected at eight two-fold dilutions 31.25 nM to 4000 nM in HBS buffer.

The target in assay [2] is T4, placental growth factor (PlGF) (UniProt P49763 19-221).
T4 chain: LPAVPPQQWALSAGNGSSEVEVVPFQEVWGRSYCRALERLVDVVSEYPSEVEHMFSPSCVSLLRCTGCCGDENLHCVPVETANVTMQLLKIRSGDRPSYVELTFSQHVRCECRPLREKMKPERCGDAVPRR
The description is as above.

Assay [3] concerns the target T2, VEGF-A165. Nature of the assay: ELISA; antigen (VEGF-A165, VEGF-B167 or PlGF) coated at 4 nM in PBS on PVC plate, blocked with 1% BSA; diluted conbercept added 2 h at room temperature; detected with HRP goat anti-human secondary antibody, absorbance at 450 nm. (An ELISA detects its analyte on a solid surface through an enzyme-linked reagent.)

B1: conbercept (Fc fusion)
chain: GRPFVEMYSEIPEIIHMTEGRELVIPCRVTSPNITVTLKKFPLDTLIPDGKRIIWDSRKGFIISNATYKEIGLLTCEATVNGHLYKTNYLTHRQTNTIIDVVLSPSHGIELSVGEKLVLNCTARTELNVGIDFNWEYPSSKHQHKKLVNRDLKTQSGSEMKKFLSTLTIDGVTRSDQGLYTCAASSGLMTKKNSTFVRVHEKPFVAFGSGMESLVEATVGERVRIPAKYLGYPPPEIKWYKNGIPLESNHTIKAGHVLTIMEVSERDTGNYTVILTNPISKEKQSHVVSLVVYVPP
modifications: Human IgG1 Fc carrier left out; it dimerises the chain (copies 2). Limits not printed: VEGFR1 Ig2 and VEGFR2 Ig3-4 taken by convention from decoy-receptor boundaries and entry features. Glycosylated …
For B1, the Kd is 5.26 nM in the assay with VEGF-A121, 5.4 nM with VEGF-A165 [1], 81.8 nM in the assay with VEGF-B167 and 51.2 nM in assay [2]. Further, the koff worked out at 0.00105 s⁻¹ in the assay with VEGF-A121, 0.00105 s⁻¹ with VEGF-A165 [1], 0.00558 s⁻¹ in the assay with VEGF-B167 and 0.00581 s⁻¹ in assay [2]. Besides, the kon with VEGF-A121 was determined as 199000 M⁻¹ s⁻¹; in the assay with VEGF-A165 [1], 194000 M⁻¹ s⁻¹; in the assay with VEGF-B167 it was 68300 M⁻¹ s⁻¹; in assay [2], 114000 M⁻¹ s⁻¹. The molecule also showed an EC50 with VEGF-A165 [3] of 0.1 nM.

As usually defined, the Kd is the equilibrium constant for the complex coming apart. The low end stands for tighter binding, the high end for weaker binding. A word on the koff: it is the first-order rate constant of dissociation. As usually defined, the kon is a measure of how fast the partners come together. Usually EC50 stands for the midpoint of the concentration-response curve. High values mean weaker potency, low ones greater potency.
